These results are taken from patent US20130337050A1 (IMMUNOFUTURE, published 2013).

To fix the notation:
B1: GST-mTfR1 (GST-fused recombinant protein of the partial sequence 321-329 of mouse transferrin receptor 1) (other, not shown: a dimerising Fc or GST)
chain: TQFPPSQSS

Holding throughout (assay): amylose resin pull-down, western blotting with anti-GST antibody
Assay [1] deals with B1.
Assay [2] concerns the target MBP-VP1BC loop (fused recombinant protein of VP1BC loop and MBP) (poliovirus).
Assay [3] concerns the target MBP-VP1 GH strand I (fused recombinant protein of VP1 GH strand I and MBP) (poliovirus).

Consider STKDLTTY (other) [MBP-VP1C terminal region (fused recombinant protein of VP1C terminal region and MBP)], for which the binding result in assay [1] was “binds”.

As for SKVPLKDQSAALGDSLYGAASLNDFGILAVRVV (other) [MBP-VP1 GH strand II (fused recombinant protein of VP1 GH strand II and MBP)], the binding result in assay [1] is “binds”.

Consider B1, for which the binding result in assay [2] and in assay [3] was “binds” throughout.

For ALGDSLYGAASLN (other) [MBP-VP1 GH loop (fused recombinant protein of VP1 GH loop and MBP)], the binding result in assay [1] was “binds”.
